Assay [1] deals with clade-C (ZM109) V1V2-ferritin nanoparticle (V1V2-FR) (HIV-1 ZM109 (clade C) | not stated) (UniProt Q9ZLI1). Description: ELISA. (In general: In an ELISA, binding on a coated surface is turned into a signal by an enzyme label.)
For assay [2], the target named is gp120-ferritin (gp120-FR) nanoparticle. Description: ELISA.

As a reminder, the EC50 is the concentration needed to bring the measured effect to its halfway point.

For PGT121, the values for the EC50 in assay [1] and in assay [2] were 0.87 µg/mL and 0.077 µg/mL, respectively.
